What was measured:
Assay in all cases: IEDB peptide-MHC binding, purified MHC/competitive/radioactivity; filed as Kd, often an IC50 or EC50 that approximates it; ≥ and ≤ were set here for values at or beyond the usual limits of such assays
[1] = biological target: HLA-A*02:02
[2] = biological target: HLA-A*02:03
[3] = biological target: HLA-A*02:06
[4] = biological target: HLA-A*03:01
[5] = biological target: HLA-A*11:01
[6] = biological target: HLA-A*31:01
[7] = biological target: HLA-A*33:01
[8] = biological target: HLA-A*68:01
[9] = source organism: Vaccinia virus WR
[10] = source organism: Mammarenavirus guanaritoense
[11] = source organism: SARS coronavirus Tor2
[12] = source organism: Mammarenavirus whitewaterense
[13] = source organism: Mammarenavirus choriomeningitidis
[14] = source organism: Lymphocytic choriomeningitis virus (strain Armstrong)

Sequence: AAAKTPVIV
- Kd [1, 9]: 1900 nM
- Kd [2, 9]: 1420 nM
- Kd [3, 9]: ≥ 66800 nM

Sequence: ALEQYGIENT
- Kd [1, 9]: 3150 nM
- Kd [2, 9]: 2160 nM
- Kd [3, 9]: 1270 nM

Sequence: CIVAAVIIMA
- Kd [1, 9]: 1130 nM
- Kd [2, 9]: 619 nM
- Kd [3, 9]: 733 nM

Sequence: CNYTRFWYI
- Kd [1, 10]: 10100 nM
- Kd [2, 10]: 5310 nM
- Kd [3, 10]: 257 nM

Sequence: CVRNLEELTT
- Kd [1, 9]: 12600 nM
- Kd [2, 9]: 15200 nM
- Kd [3, 9]: ≥ 42800 nM

Sequence: DISVNASKTI
- Kd [1, 9]: ≥ 46800 nM
- Kd [2, 9]: 11900 nM
- Kd [3, 9]: ≥ 69800 nM

Sequence: DIVSDSKKIM
- Kd [1, 9]: ≥ 25100 nM
- Kd [2, 9]: ≥ 57200 nM
- Kd [3, 9]: ≥ 69800 nM

Sequence: DTGKKELALT
- Kd [1, 9]: 1040 nM
- Kd [2, 9]: 262 nM
- Kd [3, 9]: 6800 nM

Sequence: DTLVKSGLT
- Kd [1, 9]: 1950 nM
- Kd [2, 9]: 2880 nM
- Kd [3, 9]: ≥ 52700 nM

Sequence: DVKVLAARL
- Kd [1, 9]: 6230 nM
- Kd [2, 9]: 10700 nM
- Kd [3, 9]: 9990 nM

Sequence: EAFETQSGA
- Kd [1, 9]: ≥ 77800 nM
- Kd [2, 9]: ≥ 78100 nM
- Kd [3, 9]: ≥ 49700 nM

Sequence: EIITGNKVKT
- Kd [1, 9]: ≥ 70000 nM
- Kd [2, 9]: ≥ 70400 nM
- Kd [3, 9]: ≥ 69800 nM

Sequence: EVRYIDITNI
- Kd [1, 9]: 12900 nM
- Kd [2, 9]: 5810 nM
- Kd [3, 9]: 4340 nM

Sequence: FLPSDFFPSV
- Kd ([1]; source organism: Hepatitis B virus): 2 nM

Sequence: FLWLLWPVTL
- Kd [1, 11]: 2.67 nM
- Kd [2, 11]: 14 nM
- Kd [3, 11]: 28.4 nM

Sequence: FVKENERVNV
- Kd [1, 9]: 186 nM
- Kd [2, 9]: 11.8 nM
- Kd [3, 9]: 683 nM

Sequence: FVMCLEAKT
- Kd [1, 9]: 609 nM
- Kd [2, 9]: 1940 nM
- Kd [3, 9]: 979 nM

Sequence: GLFTSLGKAV
- Kd ([2]; source organism: Dengue virus 4 Dominica/814669/1981): 18.7 nM

Sequence: GLLQFIVFL
- Kd [1, 12]: 0.6 nM
- Kd [2, 12]: 7710 nM
- Kd [3, 12]: 12.4 nM

Sequence: GLYIPGTSVI
- Kd [1, 9]: 92.1 nM
- Kd [2, 9]: 0.189 nM
- Kd [3, 9]: 3620 nM

Sequence: GMSKEPGVV
- Kd ([2]; source organism: Dengue virus 3 Martinique/1243/1999): 41.7 nM

Sequence: GTGILFMEM
- Kd [1, 9]: 2200 nM
- Kd [2, 9]: 7730 nM
- Kd [3, 9]: 9980 nM

Sequence: GVCYYLLMHL
- Kd [1, 9]: 95.8 nM
- Kd [2, 9]: 63.8 nM
- Kd [3, 9]: 128 nM

Sequence: GVLHTKFWI
- Kd [1, 9]: 16600 nM
- Kd [2, 9]: 12300 nM
- Kd [3, 9]: 417 nM

Sequence: IAVITETIPI
- Kd [1, 9]: 515 nM
- Kd [2, 9]: 31.9 nM
- Kd [3, 9]: 1.04 nM

Sequence: IIPFIAYFVL
- Kd [1, 9]: 715 nM
- Kd [2, 9]: 4730 nM
- Kd [3, 9]: 852 nM

Sequence: ILFLTLIVFT
- Kd [1, 11]: 23.6 nM
- Kd [2, 11]: 1070 nM
- Kd [3, 11]: 703 nM

Sequence: ITETIPIGM
- Kd [1, 9]: 12400 nM
- Kd [2, 9]: ≥ 42800 nM
- Kd [3, 9]: 7690 nM

Sequence: KINEMVDELV
- Kd [1, 9]: 587 nM
- Kd [2, 9]: 492 nM
- Kd [3, 9]: 3050 nM

Sequence: KTIAVSVYGA
- Kd [1, 9]: 366 nM
- Kd [2, 9]: 224 nM
- Kd [3, 9]: 427 nM

Sequence: LIVAALVFL
- Kd [1, 11]: 9.38 nM
- Kd [2, 11]: 136 nM
- Kd [3, 11]: 10.5 nM

Sequence: LIYRQLTSNV
- Kd [1, 9]: 78.7 nM
- Kd [2, 9]: 7.49 nM
- Kd [3, 9]: 169 nM

Sequence: LLTIGLSLV
- Kd ([2]; source organism: Dengue virus 1 Brazil/97-11/1997): 4.99 nM

Sequence: LLVAAGMEA
- Kd [1, 11]: 17.4 nM
- Kd [2, 11]: 16.6 nM
- Kd [3, 11]: 117 nM

Sequence: LMGHFSWWTA
- Kd [1, 11]: 19.2 nM
- Kd [2, 11]: 135 nM
- Kd [3, 11]: 97.4 nM

Sequence: LNQTVYSLV
- Kd [1, 13]: 3330 nM
- Kd [2, 13]: 1500 nM
- Kd [3, 13]: 5100 nM

Sequence: LTQVKELGIA
- Kd [1, 9]: 11800 nM
- Kd [2, 9]: 150 nM
- Kd [3, 9]: 18.1 nM

Sequence: LVFLILCFT
- Kd [1, 11]: 2490 nM
- Kd [2, 11]: 1850 nM
- Kd [3, 11]: 1370 nM

Sequence: NLPYNWKNFY
- Kd [4, 9]: 1780 nM
- Kd [5, 9]: 4360 nM
- Kd [6, 9]: 1720 nM
- Kd [7, 9]: 18600 nM
- Kd [8, 9]: 626 nM

Sequence: NSESLSLISH
- Kd [4, 14]: ≥ 23400 nM
- Kd [5, 14]: 8050 nM
- Kd [6, 14]: 16900 nM
- Kd [7, 14]: ≥ 31800 nM
- Kd [8, 14]: ≥ 29300 nM

Sequence: NTLSERISSK
- Kd [4, 9]: 48.8 nM
- Kd [5, 9]: 0.736 nM
- Kd [6, 9]: 1410 nM
- Kd [7, 9]: 404 nM
- Kd [8, 9]: 9.48 nM

Sequence: NTPLHIVCSK
- Kd [4, 9]: 32.4 nM
- Kd [5, 9]: 147 nM
- Kd [6, 9]: 233 nM
- Kd [7, 9]: 7190 nM
- Kd [8, 9]: 10.8 nM

Sequence: NTRQLKLLEY
- Kd [4, 9]: 969 nM
- Kd [5, 9]: 152 nM
- Kd [6, 9]: 9830 nM
- Kd [7, 9]: 10800 nM
- Kd [8, 9]: 1590 nM

Sequence: NVIEDITFLR
- Kd [4, 9]: 6720 nM
- Kd [5, 9]: 230 nM
- Kd [6, 9]: 64.4 nM
- Kd [7, 9]: 12.5 nM
- Kd [8, 9]: 1.59 nM

Sequence: NYSKFWYLEH
- Kd [4, 14]: ≥ 70000 nM
- Kd [5, 14]: ≥ 69700 nM
- Kd [6, 14]: 5840 nM
- Kd [7, 14]: 300 nM
- Kd [8, 14]: ≥ 70100 nM

Sequence: PISELSRLRY
- Kd [4, 9]: 3270 nM
- Kd [5, 9]: 735 nM
- Kd [6, 9]: ≥ 70000 nM
- Kd [7, 9]: 15500 nM
- Kd [8, 9]: ≥ 44900 nM

Sequence: PQVGGLTSIK
- Kd [4, 11]: ≥ 10000 nM
- Kd [5, 11]: 6370 nM
- Kd [6, 11]: ≥ 70000 nM
- Kd [7, 11]: ≥ 70000 nM
- Kd [8, 11]: ≥ 37500 nM

Sequence: QLDEKSSIK
- Kd [4, 9]: 204 nM
- Kd [5, 9]: 510 nM
- Kd [6, 9]: 4300 nM
- Kd [7, 9]: ≥ 56800 nM
- Kd [8, 9]: 14000 nM

Reference: the Immune Epitope Database (IEDB)
